Patent publication EP4624486A1 (Guangdong Raynovent Biotech Co., Ltd., dated 2025)
Bridge positions count the residues as written; N and C are the ends. Square brackets hold non-standard residues; d marks the D form. Ends that are not written are not given here. stapled body chem0208 = not defined here; stapled body chem0209 = not defined here; stapled body chem0212 = not defined here; stapled body chem0214 = not defined here; stapled body chem0215 = not defined here; αMeL = CC(C)C[C@](C)(N)C(=O)O; Orn = NCCC[C@H](N)C(=O)O; Aib = CC(C)(N)C(=O)O

T1: GIP receptor (GIPR) (UniProt P48546 22-466, limits assumed)
T1 sequence (looked up): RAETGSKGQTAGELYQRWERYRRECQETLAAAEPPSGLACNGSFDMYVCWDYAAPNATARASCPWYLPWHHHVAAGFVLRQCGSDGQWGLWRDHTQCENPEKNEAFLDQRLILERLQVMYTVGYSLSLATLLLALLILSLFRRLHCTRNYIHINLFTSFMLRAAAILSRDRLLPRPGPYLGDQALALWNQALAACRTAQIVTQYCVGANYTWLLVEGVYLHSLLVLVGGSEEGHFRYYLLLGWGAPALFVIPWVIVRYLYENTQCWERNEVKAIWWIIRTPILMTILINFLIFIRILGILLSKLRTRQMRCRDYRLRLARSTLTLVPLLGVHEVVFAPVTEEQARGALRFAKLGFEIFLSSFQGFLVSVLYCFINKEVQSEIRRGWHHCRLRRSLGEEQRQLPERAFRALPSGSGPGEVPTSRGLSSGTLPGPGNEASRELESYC

B1: Example 17 (peptide)
peptide: Y[Aib]QGTFTSDYSI[αMeL]LDKKAQ[Aib][Orn]FIEYLLEGGPSSGAPPPS-NH2
modifications: linker 17-21 via stapled body chem0215; reading uncertain; also: further groups not given here
B2: Example 11 (peptide)
peptide: Y[Aib]QGTFTSDYSI[αMeL]LDKKAQ[Aib]AFIKYLLEGGPSSGAPPPS-NH2
modifications: linker 17-24 via stapled body chem0209; reading uncertain; also: further groups not given here
B3: Example 16 (peptide)
peptide: Y[Aib]QGTFTSDYSI[αMeL]LDKKAQ[Aib][dK]FIEYLLEGGPSSGAPPPS-NH2
modifications: linker 17-21 via stapled body chem0214; reading uncertain; also: further groups not given here
B4: Example 14 (peptide)
peptide: Y[Aib]QGTFTSDYSI[αMeL]LDKKAQ[Aib]KFIEYLLKGGPSSGAPPPS-NH2
modifications: linker 21-28 via stapled body chem0212; reading uncertain; also: further groups not given here
B5: Example 10 (peptide)
peptide: Y[Aib]QGTFTSDYSI[αMeL]LDKKAQ[Aib]EFIEYLLEGGPSSGAPPPS-NH2
modifications: linker 17-21 via stapled body chem0208; reading uncertain; also: further groups not given here

How the values were obtained:
Test in all cases: cell-based or functional assay
GCG receptor (GCGR) = GCG receptor (GCGR) (UniProt P47871 26-477, limits assumed)
GIP receptor (GIPR) = target: T1, GIP receptor (GIPR)
GLP-1 receptor (GLP-1R) = GLP-1 receptor (GLP-1R) (UniProt P43220 24-463, limits assumed)

Sequence of GCG receptor (GCGR) (P47871 26-477 limits assumed): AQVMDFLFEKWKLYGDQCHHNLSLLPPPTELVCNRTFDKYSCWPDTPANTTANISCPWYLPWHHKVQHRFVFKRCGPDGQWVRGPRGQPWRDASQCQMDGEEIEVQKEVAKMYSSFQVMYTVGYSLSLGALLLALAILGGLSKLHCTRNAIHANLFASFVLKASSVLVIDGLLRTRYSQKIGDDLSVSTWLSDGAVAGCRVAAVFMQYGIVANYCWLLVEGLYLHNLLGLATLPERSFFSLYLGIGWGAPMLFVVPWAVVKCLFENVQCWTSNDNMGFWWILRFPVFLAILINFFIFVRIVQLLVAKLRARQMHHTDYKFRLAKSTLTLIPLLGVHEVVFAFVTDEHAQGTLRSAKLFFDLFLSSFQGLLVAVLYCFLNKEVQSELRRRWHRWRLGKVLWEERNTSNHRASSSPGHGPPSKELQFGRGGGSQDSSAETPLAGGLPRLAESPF

Binder | GCG EC50 (nM); cAMP, agonistic activity (GCG receptor (GCGR)) [nM] | GIP-1 EC50 (nM); cAMP, agonistic activity (GIP receptor (GIPR)) [nM] | GLP-1 EC50 (nM); cAMP, agonistic activity (GLP-1 receptor (GLP-1R)) [nM]
Y[Aib]QGTFTSDYSI[αMeL]LDKKAQ[Aib]AFIKYLLEGGPSSGAPPPS-NH2 (linker 17-24 via Ida, Lys, Lys, γGlu, C20 diacid) [Example 18] | 0.052 | 0.0004 | 0.008
Y[Aib]QGTFTSDYSI[αMeL]KDKKAQ[Aib]AFIEYLLEGGPSSGAPPPS-NH2 (linker 14-17 via (2-2-oxoethyl)‑glycine, AEEA, γGlu, C20 diacid) [Example 21] | 0.039 | 0.0008 | 0.02
B1 | 0.016 | 0.0001 | 0.001
B2 | 0.129 | 0.0003 | 0.006
B3 | 0.042 | 0.0001 | 0.002
Y[Aib]QGTFTSDYSI[αMeL]LDKKAQ[Aib]KFIEFLLEGGPSSGAPPPS-NH2 (linker 17-21 via Ida, Lys, Lys, γGlu, C20 diacid) [Example 22] | 0.034 | 0.0004 | 0.009
B4 | 0.028 | 0.0001 | 0.001
B5 | 0.057 | 0.0003 | 0.009
Y[Aib]QGTFTSDYSI[αMeL]LDKKAQ[Aib]KFIEYLLEGGPSSGAPPPS-NH2 (linker 17-21 via Glu, AEEA, AEEA, γGlu, C20 diacid) [Example 12] | 0.007 | 0.0001 | 0.002
